Article doi:10.1101/068262 (bioRxiv, 2016)
No end group written: not given here.

How the values were obtained:
[1] = biological target: Sumo-ELL2(519-640) (human) (UniProt O00472); experiment: fluorescence polarisation
[2] = biological target: ELL2^Occ–(Gly-Ser)4-AFF4^ELLBow fusion (UniProt Q9UHB7); experiment: SEC
[3] = biological target: Sumo-ELL2(519-640) (human, UniProt O00472 519-640); experiment: fluorescence polarisation
[4] = biological target: GST-ELL2 (519-640) H559E (human, UniProt O00472 519-640, H559E); experiment: pull-down
Sequence of GST-ELL2 (519-640) H559E (O00472 519-640 H559E): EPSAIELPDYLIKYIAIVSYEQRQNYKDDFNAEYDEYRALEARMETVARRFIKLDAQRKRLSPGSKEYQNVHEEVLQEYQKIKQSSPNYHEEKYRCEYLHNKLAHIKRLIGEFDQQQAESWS

[5] = biological target: GST-ELL2 (519-640) K625T (human, UniProt O00472 519-640, K625T); experiment: pull-down
Sequence of GST-ELL2 (519-640) K625T (O00472 519-640 K625T): as the sequence (O00472 519-640 H559E) above, with E41H, K107T counted along it

[6] = biological target: GST-ELL2 (519-640) N619A (human, UniProt O00472 519-640, N619A); experiment: pull-down
Sequence of GST-ELL2 (519-640) N619A (O00472 519-640 N619A): as the sequence (O00472 519-640 H559E) above, with E41H, N101A counted along it

[7] = biological target: GST-ELL2 (519-640) H608E (human, UniProt O00472 519-640, H608E); experiment: pull-down
Sequence of GST-ELL2 (519-640) H608E (O00472 519-640 H608E): as the sequence (O00472 519-640 H559E) above, with E41H, H90E counted along it

Sequence of Sumo-ELL2(519-640) (O00472 519-640): as the sequence (O00472 519-640 H559E) above, with E41H counted along it
Sequence of Sumo-ELL2(519-640) (human) (O00472 519-640): as the sequence (O00472 519-640 H559E) above, with E41H counted along it

Molecule	fold reduction of affinity against wild type [3] [fold]	also measured
AFF4^ELLBow α1 mutant D317P/E317P (301-351) (from UniProt Q9UHB7 301-351) (peptide)		fold reduction of affinity against wild type [1]: 10 fold
ELL2^Occ–(Gly-Ser)4-AFF4^ELLBow fusion (from UniProt Q9UHB7 301-351)		stoichiometry N [2]: 2
His6-tagged wild-type AFF4^ELLBow (AFF4 301-351) (peptide) PSQPLDASASGDVSCVDEILKEMTHSWPPPLTAIHTPCKTEPSKFPFPTKE		Kd [3]: 86 nM; binding result [4]: binds; binding result [5]: binds; binding result [6]: binds; binding result [7]: binds
AFF4^ELLBow L331D (301-351) (peptide) PSQPLDASASGDVSCVDEILKEMTHSWPPPDTAIHTPCKTEPSKFPFPTKE	~20	
AFF4^ELLBow double 328-329 Pro-Gly mutant (301-351) (peptide) PSQPLDASASGDVSCVDEILKEMTHSWGGPLTAIHTPCKTEPSKFPFPTKE	3	
AFF4^ELLBow I319D/L320D/M323D (301-351) (peptide) PSQPLDASASGDVSCVDEDDKEDTHSWPPPLTAIHTPCKTEPSKFPFPTKE		Kd [3]: > 3000 nM
AFF4^ELLBow I334D (301-351) (peptide) PSQPLDASASGDVSCVDEILKEMTHSWPPPLTADHTPCKTEPSKFPFPTKE	8	
AFF4^ELLBow E322H (301-351) (peptide) PSQPLDASASGDVSCVDEILKHMTHSWPPPLTAIHTPCKTEPSKFPFPTKE	< 2	
AFF4^ELLBow P342D (301-351) (peptide) PSQPLDASASGDVSCVDEILKEMTHSWPPPLTAIHTPCKTEDSKFPFPTKE	3	
AFF4^ELLBow F345D/F347D (301-351) (peptide) PSQPLDASASGDVSCVDEILKEMTHSWPPPLTAIHTPCKTEPSKDPDPTKE	< 2	
AFF4^ELLBow I319D/L320D (301-351) (peptide) PSQPLDASASGDVSCVDEDDKEMTHSWPPPLTAIHTPCKTEPSKFPFPTKE	> 25	
EILKEMTHSWPPPLTAIHTPSTAEPSKFPFPTK (also: fluorescent label, site not given here) [fluorescently labeled AFF1 peptide (residues 358-390)]		binding result [3]: binds

Continued, in another order:

fold reduction of affinity against wild type [3] [fold]	Molecule	also measured
4	AFF4^ELLBow W327D (301-351) (peptide) PSQPLDASASGDVSCVDEILKEMTHSDPPPLTAIHTPCKTEPSKFPFPTKE	
> 25	AFF4^ELLBow M323D (301-351) (peptide) PSQPLDASASGDVSCVDEILKEDTHSWPPPLTAIHTPCKTEPSKFPFPTKE	
